Results as given in PMC3833262 (2014).

Biological target: the molecule itself
Experiment: multi-angle light scattering

B1: arrestin-1 (protein)
chain: MAACGKTNKSHVIFKKVSRDKSVTIYLGKRDYVDHVSQVEPVDGVVLVDPELVKGKKVYVTLTCAFRYGQEDIDVMGLTFRRDLYFSRVQVYPPVGAMSVLTQLQESLLKKLGDNTYPFLLTFPDYLPCSVMLQPAPQDVGKSCGVDFEVKAFASDITDPEEDKIPKKSSVRLLIRKVQHAPPEMGPQPSAEASWQFFMSDKPLNLSVSLSKEIYFHGEPIPVTVTVTNNTDKVVKKIKVSVEQIANVVLYSSDYYVKPVASEETQEKVQPNSTLTKTLVLVPLLANNRERRGIALDGKIKHEDTNLASSTIIKEGIDRTVMGILVSYHIKVKLTVSGFLGELTSSEVATEVPFRLMHPQPEDPAKESVQDENLVFEEFARQNLKDTGENTEGKKDEDAGQDE
**Q.** For B1, which Kd is on record?
**A.** 57.5 µM
